Experimental data reported in publication PMC3608632.

How the values were obtained:
[1] = target: hyperphosphorylated R-topo I (CK2-treated baculovirus-expressed recombinant human topo I) (human) (UniProt P11387)
[2] = target: basal phosphorylated baculovirus-expressed recombinant human topo I (R-topo I) (human) (UniProt P11387); settings: scale: % of supercoiled plasmid converted to the relaxed form
[3] = target: hyperphosphorylated R-topo I (CK2-treated baculovirus-expressed recombinant human topo I) (human) (UniProt P11387); settings: scale: % of supercoiled DNA converted to the relaxed form
p14ARF (ARF) = p14ARF (ARF) (UniProt Q8N726); assay: anti-FLAG IP, ARF Western; settings: reference: wild-type full-length topo I (construct 6); sites S506

“recombinant thioredoxin-human ARF fusion protein (from UniProt Q8N726 1-132) (natural protein)” gave a non-covalent association of R-topo I with radiolabeled plasmid DNA (DNA co-immunoprecipitated with topo I; 75 mM NaCl, 4°C), ARF added at a 1:1 molar ratio; ~60% without ARF (% of input DNA) [1] of 80, a relaxation of supercoiled plasmid DNA by R-topo I with ARF added (about 40% without ARF) [2] of 50 and a relaxation of supercoiled plasmid DNA by R-topo I with ARF added (∼70% without ARF) [3] of 100.
With “topoisomerase I (topo I) (from UniProt P11387) S506A full-length topo I (construct 9)” the “binding against the reference” value (p14ARF (ARF)) was “weaker”.
